Consider 16 molecules from patent publication US20250326839A1 (VIGIL NEUROSCIENCE, published 2025).

Assay [1] addresses T1, human TREM2 (human, UniProt Q9NZC2 19-174, limits assumed).
T1 construct: also called triggering receptor expressed on myeloid cells 2
T1 sequence: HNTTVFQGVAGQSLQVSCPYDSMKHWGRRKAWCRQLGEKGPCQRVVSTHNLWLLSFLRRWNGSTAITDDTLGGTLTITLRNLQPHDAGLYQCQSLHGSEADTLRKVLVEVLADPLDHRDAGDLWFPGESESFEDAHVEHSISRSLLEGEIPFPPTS
The assay can be described thus: 2nd screen, 10 nM.

Assay [2] addresses T1, human TREM2. The assay can be described thus: 2nd screen, 2 nM.
Assay [3] addresses T1, human TREM2. The assay can be described thus: 1st screen, 10 nM Ab.

Where a chain is given by its changes, count along the chain named.

B1: V62 (antibody, V domains shown)
VH: EVQLVQSGAEVKKPGESLKISCKGSGYSFGSYWIAWVRQMPGKGLEWMGIIYPGDSDTRYAPSFQGQVTISADKSISTAYLQWSSLKASDTAMYFCARQRTFYYDSSGYFDYWGQGTLVTVSS
VL: DIQMTQSPSSVSASVGDRVTITCRASQGISSWLAWYQQKPGKAPKLLIYAASSLQRGVPSRFSGSGSGTDFTLTISSLQPEDFATYFCGQADSFPRTFGQGTKLEIK
notes: also called 6E7 variant V62
As to B1, the entries for the “Binding Signal” value in the assay with human TREM2 [1], with human TREM2 [2] and with human TREM2 [3] were 2.89 fold over 6E7 parental antibody, 1.87 fold over 6E7 parental antibody and 2.49 fold over 6E7 parental antibody, respectively.

B2: V86 (antibody, V domains shown)
VH: B1 VH with I34L, A61S, Q65E, Q99S, G108D
VL: B1 VL with L54R, R56N, G89Q
notes: also called 6E7 variant V86
Take B2: the “Binding Signal” value with human TREM2 [1] was 5.02 fold over 6E7 parental antibody; in the assay with human TREM2 [2], 5.17 fold over 6E7 parental antibody; with human TREM2 [3], 4.8 fold over 6E7 parental antibody.

B3: V63 (antibody, V domains shown)
VH: B1 VH with G30R, A61S, Q99S, G108D
VL: B1 VL with G89Q, S93R
notes: also called 6E7 variant V63
Turning to B3, the “Binding Signal” value in the assay with human TREM2 [1] is 3.71 fold over 6E7 parental antibody; in the assay with human TREM2 [2], 4.91 fold over 6E7 parental antibody; with human TREM2 [3], 3.76 fold over 6E7 parental antibody.

B4: V87 (antibody, V domains shown)
VH: B1 VH with G30R, T58V, A61S, S63D, Q99S, G108D
VL: B1 VL with R56W, G89Q
notes: also called 6E7 variant V87
As to B4, the “Binding Signal” value in the assay with human TREM2 [1] was 3.93 fold over 6E7 parental antibody; with human TREM2 [2], 4.86 fold over 6E7 parental antibody; in the assay with human TREM2 [3], 3.84 fold over 6E7 parental antibody.

B5: V74 (antibody, V domains shown)
VH: B1 VH with G30A, T58V, A61S, Q99G, G108D
VL: B1 VL with R56L, G89Q
notes: also called 6E7 variant V74
Take B5: the “Binding Signal” value with human TREM2 [1] was 4.01 fold over 6E7 parental antibody; with human TREM2 [2] it was 2.54 fold over 6E7 parental antibody; with human TREM2 [3], 3.94 fold over 6E7 parental antibody.

B6: V72 (antibody, V domains shown)
VH: B1 VH with G30T, A35G, A61S, Q99G, G108D
VL: B1 VL with Q55V, R56N, G89Q, F94Y
notes: also called 6E7 variant V72
Consider B6, for which the results for the “Binding Signal” value with human TREM2 [1], with human TREM2 [2] and with human TREM2 [3] were 4.01 fold over 6E7 parental antibody, 2.5 fold over 6E7 parental antibody and 3.64 fold over 6E7 parental antibody, respectively.

B7: V76 (antibody, V domains shown)
VH: B1 VH with A61S, S63E, G108D, F110S
VL: B1 VL with R56K, T69R, G89Q
notes: also called 6E7 variant V76; LV-109/HV-110
As to B7, the “Binding Signal” value with human TREM2 [1] is 4.93 fold over 6E7 parental antibody; in the assay with human TREM2 [2], 4.34 fold over 6E7 parental antibody; with human TREM2 [3], 4.57 fold over 6E7 parental antibody.

B8: V73 (antibody, V domains shown)
VH: B1 VH with A61S, S63G, Q99G, G108D
VL: B1 VL with L54R, R56N, G89Q, F94Y
notes: also called 6E7 variant V73; LV-106/HV-109
In the case of B8, the “Binding Signal” value was 5.44 fold over 6E7 parental antibody with human TREM2 [1], 4.17 fold over 6E7 parental antibody with human TREM2 [2] and 5.12 fold over 6E7 parental antibody in the assay with human TREM2 [3].

B9: V75 (antibody, V domains shown)
VH: B1 VH with G30T, A61S, Q99G, G108D
VL: B1 VL with R56A, G89Q, F94Y
notes: also called 6E7 variant V75
For the molecule B9, the “Binding Signal” value in the assay with human TREM2 [1] was 4.52 fold over 6E7 parental antibody; with human TREM2 [2] it was 3.74 fold over 6E7 parental antibody; in the assay with human TREM2 [3], 4.64 fold over 6E7 parental antibody.

B10: V88 (antibody, V domains shown)
VH: B1 VH with A61S, G108D
VL: B1 VL with S53R, G89Q, F94S
notes: also called 6E7 variant V88
B10: the “Binding Signal” value with human TREM2 [1] was 5.3 fold over 6E7 parental antibody; in the assay with human TREM2 [2], 5.57 fold over 6E7 parental antibody; with human TREM2 [3], 4.92 fold over 6E7 parental antibody.

B11: V64 (antibody, V domains shown)
VH: B1 VH with G30Q, A61S, Q99G, G108D
VL: B1 VL with Q55A, R56N, G89Q, F94Y
notes: also called 6E7 variant V64
B11: the figures for the “Binding Signal” value with human TREM2 [1], with human TREM2 [2] and with human TREM2 [3] were 5.48 fold over 6E7 parental antibody, 4.88 fold over 6E7 parental antibody and 5.41 fold over 6E7 parental antibody, respectively.

B12: V65 (antibody, V domains shown)
VH: B1 VH with G30T, A61S, Q99S, G108D
VL: B1 VL with R56N, G89Q
notes: also called 6E7 variant V65
Turning to B12, the “Binding Signal” value was 2.75 fold over 6E7 parental antibody in the assay with human TREM2 [1], 1.29 fold over 6E7 parental antibody with human TREM2 [2] and 2.05 fold over 6E7 parental antibody in the assay with human TREM2 [3].

B13: V85 (antibody, V domains shown)
VH: B1 VH with G30R, I50T, A61S, Q99S, G108D
VL: B1 VL with L54R, R56N, G89Q
notes: also called 6E7 variant V85
For the molecule B13, the “Binding Signal” value with human TREM2 [1] is 5.37 fold over 6E7 parental antibody; in the assay with human TREM2 [2], 5.41 fold over 6E7 parental antibody; with human TREM2 [3] it was 5.41 fold over 6E7 parental antibody.

B14: V89 (antibody, V domains shown)
VH: B1 VH with G30T, A61S, G108D
VL: B1 VL with R56N, G89Q, F94H
notes: also called 6E7 variant V89
In the case of B14, the “Binding Signal” value with human TREM2 [1] is 1.46 fold over 6E7 parental antibody; with human TREM2 [2], 0.94 fold over 6E7 parental antibody; in the assay with human TREM2 [3], 1.33 fold over 6E7 parental antibody.

B15: V77 (antibody, V domains shown)
VH: B1 VH with G30T, A61S, G108D
VL: B1 VL with L54R, R56N, G89Q
notes: also called 6E7 variant V77
As to B15, the “Binding Signal” value with human TREM2 [1] is 1.38 fold over 6E7 parental antibody; with human TREM2 [2] it was 0.83 fold over 6E7 parental antibody; with human TREM2 [3], 1.43 fold over 6E7 parental antibody.

B16: V84 (antibody, V domains shown)
VH: B1 VH with S28G, G30T, A61S, G108D, F110S
VL: B1 VL with A50G, R56N, G89Q
notes: also called 6E7 variant V84
For the molecule B16, the “Binding Signal” value in the assay with human TREM2 [1] is 1.62 fold over 6E7 parental antibody; with human TREM2 [2] it was 1.45 fold over 6E7 parental antibody; with human TREM2 [3], 1.44 fold over 6E7 parental antibody.
